IntAct's records for PubMed 23286197

B1: MIF4G domain-containing protein (Homo sapiens), A9UHW6 (parent)
chain: MGEPSREEYKIQSFDAETQQLLKTALKDPGAVDLEKVANVIVDHSLQDCVFSKEAGRMCYAIIQAESKQAGQSVFRRGLLNRLQQEYQAREQLRARSLQGWVCYVTFICNIFDYLRVNNMPMMALVNPVYDCLFRLAQPDSLSKEEEVDCLVLQLHRVGEQLEKMNGQRMDELFVLIRDGFLLPTGLSSLAQLLLLEIIEFRAAGWKTTPAAHKYYYSEVSD

Variants of: B1
Details: with slbp_human SLBP

Variant	effect of a mutation on the interaction
MGEPSREEYKIQSFDAETQQLLKTALKDPGAVDLEKVANVIVDHSLQDCVFSKEAGRMCYAIIQAESKQAGQSVFRRGLLNRLQQEYQAREQLRARSLQGWVCYVTFICNIFDYLRVNNMPMMALVNPVYDCLFRLAQPDSLSKEEEVDCLVLQLHRVGEQLEKMNGQRMDELFVLIRDGFLLPTGLSSLAQLLLLEIIEFAAAGWKTTPAAHKYYYSEVSD [R202A]	disrupting interaction
MGEPSRAEYKIQSFDAETQQLLKTALKDPGAVDLEKVANVIVDHSLQDCVFSKEAGRMCYAIIQAESKQAGQSVFRRGLLNRLQQEYQAREQLRARSLQGWVCYVTFICNIFDYLRVNNMPMMALVNPVYDCLFRLAQPDSLSKEEEVDCLVLQLHRVGEQLEKMNGQRMDELFVLIRDGFLLPTGLSSLAQLLLLEIIEFRAAGWKTTPAAHKYYYSEVSD [E7A]	with no effect
MGEPSREEYKIQSFDAETQQLLKTALKDPGAVDLEKVANVIVDHSLQDCVFSKEAGRMCYAIIQAESKQAGQSVFRRGLLNRLQQEYQAREQLRARSLQGWVCYVTFICNIFDYLRVNNMPMMALVNPVYDCLFRLAQPDSLSKEEEVDCLVLQLHAVGEQLEKMNGQRMDELFVLIRDGFLLPTGLSSLAQLLLLEIIEFRAAGWKTTPAAHKYYYSEVSD [R157A]	with no effect
MGEPSREEYKIQSFDAETQQLLKTALKDPGAVDLEKVANVIVDHSLQDCVFSKEAGRMCYAIIQAESKQAGQSVFARGLLNRLQQEYQAREQLRARSLQGWVCYVTFICNIFDYLRVNNMPMMALVNPVYDCLFRLAQPDSLSKEEEVDCLVLQLHRVGEQLEKMNGQRMDELFVLIRDGFLLPTGLSSLAQLLLLEIIEFRAAGWKTTPAAHKYYYSEVSD [R76A]	with no effect
MGEPSREEYKIQSFDAETQQLLKTALKDPGAVDLEKVANVIVDHSLQDCVFSKEAGRMCYAIIAAESKQAGQSVFRRGLLNRLQQEYQAREQLRARSLQGWVCYVTFICNIFDYLRVNNMPMMALVNPVYDCLFRLAQPDSLSKEEEVDCLVLQLHRVGEQLEKMNGQRMDELFVLIRDGFLLPTGLSSLAQLLLLEIIEFRAAGWKTTPAAHKYYYSEVSD [Q64A]	with no effect
MGEPSREEYAIQSFDAETQQLLKTALKDPGAVDLEKVANVIVDHSLQDCVFSKEAGRMCYAIIQAESKQAGQSVFRRGLLNRLQQEYQAREQLRARSLQGWVCYVTFICNIFDYLRVNNMPMMALVNPVYDCLFRLAQPDSLSKEEEVDCLVLQLHRVGEQLEKMNGQRMDELFVLIRDGFLLPTGLSSLAQLLLLEIIEFRAAGWKTTPAAHKYYYSEVSD [K10A]	with no effect
MGEPSREEYKIQSFDAETQQLLKTALKDPGAVDLEKVANVIVDHSLQDCVFSKEAGRMCYAIIQAESKQAGQSVARRGLLNRLQQEYQAREQLRARSLQGWVCYVTFICNIFDYLRVNNMPMMALVNPVYDCLFRLAQPDSLSKEEEVDCLVLQLHRVGEQLEKMNGQRMDELFVLIRDGFLLPTGLSSLAQLLLLEIIEFRAAGWKTTPAAHKYYYSEVSD [F75A]	with no effect
MGEPSREEYKIQSFDAETQQLLKTALKDPGAVDLEKVANVIVDASLQDCVFSKEAGRMCYAIIQAESKQAGQSVFRRGLLNRLQQEYQAREQLRARSLQGWVCYVTFICNIFDYLRVNNMPMMALVNPVYDCLFRLAQPDSLSKEEEVDCLVLQLHRVGEQLEKMNGQRMDELFVLIRDGFLLPTGLSSLAQLLLLEIIEFRAAGWKTTPAAHKYYYSEVSD [H44A]	with no effect
MGEPSREEYKIQSFDAETQQLLKTALKDPGAVDLEKVANVIVDHSLQDCVFSKEAGAMCYAIIQAESKQAGQSVFRRGLLNRLQQEYQAREQLRARSLQGWVCYVTFICNIFDYLRVNNMPMMALVNPVYDCLFRLAQPDSLSKEEEVDCLVLQLHRVGEQLEKMNGQRMDELFVLIRDGFLLPTGLSSLAQLLLLEIIEFRAAGWKTTPAAHKYYYSEVSD [R57A]	with no effect
MGEPSREEYKIQSFDAETQQLLKTALKDPGAVDLEKVANVIVDHSLQDCVFSKEAGRMCYAIIQAESKQAGQSVFRRGLLNALQQEYQAREQLRARSLQGWVCYVTFICNIFDYLRVNNMPMMALVNPVYDCLFRLAQPDSLSKEEEVDCLVLQLHRVGEQLEKMNGQRMDELFVLIRDGFLLPTGLSSLAQLLLLEIIEFRAAGWKTTPAAHKYYYSEVSD [R82A]	with no effect
MGEPSREEYKIQSFDAETQQLLKTALKDPGAVDLEKVANVIVDHSLQDCVFSKEAGRMCYAIIQAESKQAGQSVFRRGLLNRLQQEYQAREQLRARSLQGWVCYVTFICNIFDYLRVNNMPMMALVNPVYDCLFRLAQPDSLSKEEEVDCLVLQLHRVGEQLEKMNGQRMDELFVLIRDGFLLPTGLSSLAQLLLLEIIAFRAAGWKTTPAAHKYYYSEVSD [E200A]	increasing interaction
MGEPSREEYKIQSFDAETQQLLKTALKDPGAVDLEKVANVIVDHSLQDCVFSKEAGRMCAAIIQAESKQAGQSVFRRGLLNRLQQEYQAREQLRARSLQGWVCYVTFICNIFDYLRVNNMPMMALVNPVYDCLFRLAQPDSLSKEEEVDCLVLQLHRVGEQLEKMNGQRMDELFVLIRDGFLLPTGLSSLAQLLLLEIIEFRAAGWKTTPAAHKYYYSEVSD [Y60A]	with no effect
